Data on four proteins can be found in PMC8217511, “Tuning SAS-6 architecture with monobodies impairs distinct steps of centriole assembly” (Nature Communications, 2021).

Data set [1] concerns the molecule itself. The data set can be described thus: PORT-HS-AFM; CrSAS-6_NL adsorbed on mica, 11-16 nM (equilibrium) or 44 nM (assembly reaction); 150 mM KCl, 20 mM Tris-HCl pH 8.0; monobodies at 6.8 µM, 14.5 µM and 12.9 µM.
Data set [2] concerns the molecule itself. Briefly: crystal structure; CrSAS-6 combined with a 2x molar excess of monobody, complex purified by SEC; sitting drop vapor diffusion at 18 °C.

B1: CrSAS-6_NL, N-terminal head domain and the entire coiled-coil of Chlamydomonas reinhardtii SAS-6 (domain or fragment, UniProt A9CQL4 1-503, looked up)
chain: MPLLLDDGDPKAQTGFDLSTATTLFWRPVPVHVKQQDREDVLEELTFRILTGVAKQNHNLRILRIHISSDSDLFFLHTLEVSEEDFQSLKNDQGILVDFASFPGKIISLLEKCILAQPGDSPRFQAVLTIRGGESVFKIVEINDFKQLPHITLAFRPGNDSVVKQFLAFRLSEVKGTCHDLSDDLSRTRDDRDSMVAQLAQCRQQLAQLREQYDKHLLEVQAQAKTQQASAHEERIREKSQLKDQFEKERGEMEGRYRDQIAALNTRLGELDTENRKLREVKYELDTKVSELSHKLGSSEGSNRSLEEETARLRSLNQQLSSSKHELEIQLNEAKAKVLALDEKAQSQGDVIEQQRGRLRDMEAALRQTEQRCADLRDTLASAEGRAKEAQAEVLKGNQAIEKLTNDLRLAKEKTKRKAAIILRQEEELQEREQSLANATRDVGVLGQQAESLRKDVASLHSENDSLRSKLEDSKQQLQSNEQMIRWLNQQVTEAQLHASGAT
notes: SAS-6 of Chlamydomonas reinhardtii, N-terminal head domain and entire coiled-coil, residues 1-503; pFLOAT2-His vector, PreScission Protease site after the His tag; homodimers that assemble into ring polymers; source: E. coli BL21(DE3), purified (HisTrap, SEC)
Regarding B1, the binding result in data set [1] was “binds”.

B2: CrSAS-6_N, N-terminal globular domain of Chlamydomonas reinhardtii SAS-6 (domain or fragment, UniProt A9CQL4 1-159, looked up)
chain: MPLLLDDGDPKAQTGFDLSTATTLFWRPVPVHVKQQDREDVLEELTFRILTGVAKQNHNLRILRIHISSDSDLFFLHTLEVSEEDFQSLKNDQGILVDFASFPGKIISLLEKCILAQPGDSPRFQAVLTIRGGESVFKIVEINDFKQLPHITLAFRPGN
notes: SAS-6 of Chlamydomonas reinhardtii, N-terminal globular head domain, residues 1-159 (the methods list the two ranges in the reverse order of the two names); source: E. coli BL21(DE3), purified (HisTrap, tag cleavage by protease, SEC); not shown: His6, N-terminal, cleaved; AVI-tag, N-terminal, cleaved
Turning to B2, the binding result in data set [2] is “binds”.

B3: CrSAS-6_6HR-[F145E] (domain or fragment, Chlamydomonas reinhardtii, UniProt A9CQL4 1-226, looked up)
chain: MPLLLDDGDPKAQTGFDLSTATTLFWRPVPVHVKQQDREDVLEELTFRILTGVAKQNHNLRILRIHISSDSDLFFLHTLEVSEEDFQSLKNDQGILVDFASFPGKIISLLEKCILAQPGDSPRFQAVLTIRGGESVFKIVEINDEKQLPHITLAFRPGNDSVVKQFLAFRLSEVKGTCHDLSDDLSRTRDDRDSMVAQLAQCRQQLAQLREQYDKHLLEVQAQAKT
notes: SAS-6 of Chlamydomonas reinhardtii, residues 1-226 (limits as for CrSAS-6_6HR) with F145E; arranged as homodimers in the crystal; also called CrSAS-6_6HR harboring the mutation F145E; source: E. coli BL21(DE3), purified (HisTrap, tag cleavage by protease, SEC); not shown: His6, N-terminal, cleaved; AVI-tag, N-terminal, cleaved
In the case of B3, in data set [2], the binding result is “binds”.

B4: CrSAS-6_6HR, N-terminal domain and six heptad repeats of the coiled-coil of Chlamydomonas reinhardtii SAS-6 (domain or fragment, UniProt A9CQL4 1-226, looked up)
chain: MPLLLDDGDPKAQTGFDLSTATTLFWRPVPVHVKQQDREDVLEELTFRILTGVAKQNHNLRILRIHISSDSDLFFLHTLEVSEEDFQSLKNDQGILVDFASFPGKIISLLEKCILAQPGDSPRFQAVLTIRGGESVFKIVEINDFKQLPHITLAFRPGNDSVVKQFLAFRLSEVKGTCHDLSDDLSRTRDDRDSMVAQLAQCRQQLAQLREQYDKHLLEVQAQAKT
notes: homodimer through the coiled-coil; source: E. coli BL21(DE3), purified (HisTrap, tag cleavage by protease, SEC); not shown: His6, N-terminal, cleaved; AVI-tag, N-terminal, cleaved
Take B4: the binding result in data set [2] is on record as “binds”.
